Source: the supplement of paper PMC10724198
± gives the standard deviation of the averaged measurements.

Test system: Saccharomyces cerevisiae
Experiment: protein stability index of tFT-peptide fusion (C-terminal peptide) (PSI (0-1 scale)); higher = more stable (slower turnover)
Details: genetic background: wild type; temperature: 30 C
Procedure: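 Multiplexed protein stability (MPS) profiling in S. cerevisiae. Random 12-aa peptides (tFT-X12 library) are fused to the C-terminus of a sfGFP-mCherry tandem fluorescent timer, after mCherry and a GGGS linker. Cells are FACS-sorted into 8 mCherry/sfGFP bins and deep-sequenced. The protein stability index (PSI) is the read-weighted bin average, scaled from 0 (unstable) to 1 (stable). Only peptides with >10 reads are reported; cells were grown at 30 °C in SC-His with glucose.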
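Also: PSI is a weighted mean of sequencing reads over stability bins, variants kept only with over 10 reads, mCherry proximal and sfGFP distal, peptide attached via GGGS linker.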

Row | Sequence | protein stability index
1 | PRPPSPAPPPHP | 0.69904 ± 0.00044
2 | FDPSFLSVCRSK | 0.72 ± 0.021
3 | GREGKHLGAPPS | 0.68 ± 0.032
4 | VPWTPPRVERVP | 0.737 ± 0.036
5 | RCETHKDHESNE | 0.725 ± 0.014
6 | NGGERQDGGKHR | 0.648 ± 0.034
7 | ILSDRVLRVGVK | 0.65502 ± 0.00049
8 | LRRSRGTVWRWY | 0.5535 ± 0.0032
9 | PPAPRLPPPLPP | 0.629 ± 0.021
10 | EPSAPYYCVTKG | 0.7279 ± 0.002
11 | CSCPEDGILCIF | 0.62 ± 0.076
12 | VNILRVYHVARA | 0.564 ± 0.097
13 | RLHCEGCDPGSL | 0.7189 ± 0.0015
14 | PPPSSSSPPPPR | 0.704 ± 0.039
15 | SRGRILAVRNTT | 0.713 ± 0.021
16 | KNEEKIDKIEEQ | 0.72 ± 0.09
17 | RGSRFVAGGGSV | 0.702 ± 0.038
18 | LFYVNIPTQFVR | 0.564 ± 0.014
19 | CWQMTWSEGLGN | 0.687 ± 0.038
20 | PDVPVTCYAASH | 0.661 ± 0.067
21 | GCVGGWLGEGIG | 0.627 ± 0.035
22 | FPPLFPLSTFLL | 0.56 ± 0.04
23 | LLQLLGGFVFSA | 0.67 ± 0.018
24 | KQKNKNNVKQPN | 0.693 ± 0.012
25 | KKTKKKRTEPQP | 0.724 ± 0.068

Row | Sequence | protein stability index
26 | LPSLHPPPSPQP | 0.777 ± 0.08
27 | SPGSSPPLLSPH | 0.761 ± 0.013
28 | GKTQLIKNIQNI | 0.568 ± 0.023
29 | VSFRAMDRLTSR | 0.6171 ± 0.0023
30 | TYLCLLVRDNRG | 0.706 ± 0.012
31 | RGEVWVEVALGV | 0.642 ± 0.021
32 | RSPPPFLSIFPL | 0.745 ± 0.01
33 | SRTLYSHLLFFP | 0.66 ± 0.0097
34 | GAVRAVAGGGAR | 0.711 ± 0.067
35 | PPPPLPSPAPRP | 0.735 ± 0.032
36 | PPLPLLPPLPPP | 0.644 ± 0.034
37 | QPGTRRNNHIQV | 0.704 ± 0.026
38 | WVREFSHKHVMS | 0.718 ± 0.01
39 | RLDFFIFSRWWI | 0.727 ± 0.031
40 | GQQILGGRSLEG | 0.63 ± 0.035
41 | WGGQRGWVEVWR | 0.683 ± 0.04
42 | SPPRSPPDFVPF | 0.684 ± 0.0088
43 | RQIPAQAVKHVL | 0.588 ± 0.02
44 | RGRWVDWLSFTF | 0.7278 ± 0.0022
45 | HIWQEADGMDTE | 0.679 ± 0.022
46 | ESRGKKPDTYTQ | 0.707 ± 0.074
47 | KKKKKKKEYKKK | 0.752 ± 0.038
48 | DRLNLFSSFEGT | 0.721 ± 0.053
49 | KRKKNKEENQTE | 0.708 ± 0.016
50 | PPSPRNSDPPPL | 0.654 ± 0.071

Row | Sequence | protein stability index
51 | CFGMMVFFHRVI | 0.534 ± 0.076
52 | MLPPRRAPFPPP | 0.735 ± 0.018
53 | IKKTKNKETKKT | 0.676 ± 0.045
54 | PPHTHTQRPSPT | 0.715 ± 0.027
55 | TSPVPPSTPAPP | 0.6686 ± 0.0045
56 | GGSRGVGASEEC | 0.6515 ± 0.005
57 | FFWGVFFLGLGW | 0.566 ± 0.071
58 | EMTRELLMRVSK | 0.704 ± 0.015
59 | VRTHRVRARAVE | 0.685 ± 0.019
60 | GRGGPSGAKAHR | 0.684 ± 0.026
61 | CVGSVEVGHSGI | 0.702 ± 0.02
62 | FLTPPSLSLPPP | 0.68 ± 0.0084
63 | RLLVGFLSPFSC | 0.713 ± 0.031
64 | KKKKNKKKNKKK | 0.669 ± 0.011
65 | KTKKRHKENRKE | 0.791 ± 0.067
66 | GHRRLGNRWSVG | 0.671 ± 0.035
67 | GSRSSDTGGRLM | 0.6819 ± 0.00074
68 | LTPEPPRPPTPY | 0.699 ± 0.033
69 | KKKKKKKYKQRK | 0.706 ± 0.05
70 | KVRGMKIKGKLD | 0.675 ± 0.054
71 | LAWYPGYCYCCL | 0.598 ± 0.0089
72 | DFPPRPTPLSSL | 0.658 ± 0.033
73 | LLFSSPPARMCP | 0.786 ± 0.1
74 | LSSARPLAGVHT | 0.675 ± 0.03
75 | KWNITKEQENSR | 0.681 ± 0.018

Row | Sequence | protein stability index
76 | FVLLGVRGGAGW | 0.698 ± 0.021
77 | CKGSGLGGGVVS | 0.583 ± 0.017
78 | PRRQCIRAPCAR | 0.641 ± 0.018
79 | RAARGQQGGPVA | 0.651 ± 0.041
80 | DLLKFGPKVLHL | 0.6592 ± 0.0023
81 | SPLPPSPPPLLF | 0.762 ± 0.17
82 | KKGRGEGTKKKR | 0.602 ± 0.047
83 | PIYRNKGNRGGI | 0.739 ± 0.034
84 | RPAFPIPSLYPS | 0.725 ± 0.11
85 | KKKKEEKQKGLK | 0.69 ± 0.028
86 | WGYAFVGVVRGA | 0.661 ± 0.046
87 | RGGGWVLEVLLG | 0.5195 ± 0.0024
88 | LTPTLLTNPQAD | 0.678 ± 0.022
89 | DTALMQAGSLFH | 0.651 ± 0.054
90 | PLTVARTHRGHA | 0.689 ± 0.014
91 | YWGGWWGGWEIG | 0.689 ± 0.014
92 | KIQGGKQKTVDD | 0.824 ± 0.25
93 | GGSALGCLCRWM | 0.823 ± 0.029
94 | AVCLLRLDRSRA | 0.665 ± 0.027
95 | EVGLSVLLPGGG | 0.675 ± 0.022
96 | WKNTNSLRAPAL | 0.675 ± 0.016
97 | RKTKIKKLGRDK | 0.644 ± 0.1
98 | EPIKEKKKMGSR | 0.63 ± 0.056
99 | PEPEPAGASQKR | 0.577 ± 0.0076
100 | RSVPPSSPPPYF | 0.699 ± 0.037

Row | Sequence | protein stability index
101 | WGGAGGGSGYGR | 0.68 ± 0.064
102 | KKKNKKKEKKKN | 0.714 ± 0.049
103 | TGKHDIAQEQTK | 0.679 ± 0.028
104 | YNSTVVKKGRCP | 0.7024 ± 0.0028
105 | KHTKRIRLYKTK | 0.7831 ± 0.0034
106 | LHCKDWGHESRD | 0.6838 ± 0.0057
107 | SCSHYLPAPLPF | 0.577 ± 0.0074
108 | KKKNNKRKAKNK | 0.6918 ± 0.0012
109 | PSPPAPPRGLLP | 0.704 ± 0.03
110 | EVTEVCTIKVHV | 0.577 ± 0.0097
111 | DRGGCRRAGSCQ | 0.69 ± 0.018
112 | GGRGPSAVGSGV | 0.74 ± 0.085
113 | PPPAPPPPLRLL | 0.721 ± 0.046
114 | KKRQNIAKSEDT | 0.701 ± 0.025
115 | KKQRKRKMTERG | 0.742 ± 0.11
116 | NRCIRIQETVRI | 0.619 ± 0.053
117 | KIKVKTKKWNIK | 0.681 ± 0.018
118 | KKKKKKKKKNNK | 0.6851 ± 0.0035
119 | SYLDWFLVLDMF | 0.6706 ± 0.0047
120 | AKRQRQQKKDKG | 0.626 ± 0.014
121 | RSSFCGVRAWLA | 0.704 ± 0.078
122 | CVPLSAIFSAFT | 0.77 ± 0.022
123 | YTPSPHVRAPRH | 0.737 ± 0.025
124 | PPPPPLPPRSCL | 0.703 ± 0.013
125 | EGGETLLGAKGR | 0.639 ± 0.013

Row | Sequence | protein stability index
126 | PPSRFPAPPSCA | 0.705 ± 0.059
127 | RGLSCAAYFSGA | 0.727 ± 0.028
128 | FEVSGYRNGRAL | 0.694 ± 0.0074
129 | GLWCVGGGAVGV | 0.6818 ± 0.004
130 | SSYGPAKSLGCA | 0.684 ± 0.023
131 | GGGRGWAGENTR | 0.704 ± 0.028
132 | GWVPDGCVGSIG | 0.653 ± 0.069
133 | VRPCLYPCSRTV | 0.708 ± 0.03
134 | APPPPPFPPPCA | 0.694 ± 0.049
135 | DGVRGWVGVAGD | 0.698 ± 0.039
136 | PGCYRVPIHSFS | 0.7131 ± 0.0015
137 | GFISFASRISTS | 0.722 ± 0.032
138 | PPPAPPPHRDLS | 0.709 ± 0.057
139 | LLFSPTHEPRIW | 0.734 ± 0.075
140 | KKKKKEKNKIKI | 0.689 ± 0.14
141 | AGGGRRRLDGGR | 0.703 ± 0.0086
142 | WLAIFFFSLSPF | 0.525 ± 0.055
143 | QSPRLTSGPQPL | 0.652 ± 0.022
144 | CVPLPPVLPRSC | 0.6607 ± 0.0018
145 | AQLPRSFAPPLR | 0.868 ± 0.19
146 | RVRQQKIFPSLD | 0.7057 ± 0.0062
147 | VKGVGNTAGRGV | 0.659 ± 0.023
148 | EWCAVYDQGNRF | 0.818 ± 0.11
149 | SFWWGGWGVGPD | 0.73647 ± 0.0004
150 | AVSLWAIFPLYT | 0.611 ± 0.015

Row | Sequence | protein stability index
151 | LPDLSPIRRCPL | 0.694 ± 0.04
152 | DSSLCFAGLHNT | 0.705 ± 0.054
153 | PLLRGFPAHLAS | 0.699 ± 0.078
154 | PDTLCAYLSFGS | 0.776 ± 0.064
155 | EREGREGKGRER | 0.777 ± 0.079
156 | PSPPPLGPLPAL | 0.667 ± 0.037
157 | TTNGGPGNGAQN | 0.66543 ± 0.00044
158 | DPEDPPRAREPQ | 0.673 ± 0.038
159 | LSPAAPTHAYAA | 0.72 ± 0.1
160 | PPPTPACPPATL | 0.693 ± 0.039
161 | CGEEVGGGVMIW | 0.689 ± 0.015
162 | VRERWNTKKKKK | 0.64 ± 0.057
163 | PPPAPPHPPLRH | 0.682 ± 0.027
164 | LPPPPLPPPVFP | 0.74 ± 0.018
165 | SAAPVTLSRLPP | 0.699 ± 0.071
166 | FYLMSDTNLPAL | 0.664 ± 0.021
167 | VAWTYDYTGVLR | 0.626 ± 0.037
168 | GGVSGEGFSWVG | 0.66987 ± 0.0004
169 | PFAPSPRPPQPP | 0.672 ± 0.02
170 | TWIEGGVDRQRG | 0.683 ± 0.074
171 | GGRGGEGRGGSG | 0.658 ± 0.018
172 | GKFTGPLGARSR | 0.658 ± 0.032
173 | EDDQETPDTVQS | 0.66 ± 0.014
174 | LETIFEDFGKYR | 0.794 ± 0.092
175 | VLVVFVGDSSKR | 0.662 ± 0.039

Row | Sequence | protein stability index
176 | WGGGLGTAVVGV | 0.643 ± 0.021
177 | VTKAALADLRHM | 0.609 ± 0.016
178 | GLRCSRVSFFFW | 0.64 ± 0.039
179 | PPPRPPGPPLPH | 0.702 ± 0.075
180 | DLGRRRVGPKGA | 0.717 ± 0.024
181 | DGSRSFSYSTAG | 0.642 ± 0.1
182 | PPSPLSRYSPRL | 0.754 ± 0.0043
183 | KKKKNKKKTKKT | 0.784 ± 0.17
184 | PRCPVNTHPLAR | 0.702 ± 0.013
185 | EIKKNQKRKFDG | 0.66 ± 0.041
186 | VAVRCVLWEGFS | 0.76 ± 0.084
187 | PSGPSTVLPSPL | 0.6866 ± 0.0065
188 | RFCRAFSGALSR | 0.805 ± 0.021
189 | VPTSLGAYLRMV | 0.511 ± 0.014
190 | RSWISGVRPSYP | 0.75 ± 0.036
191 | WFRPPSVPEEEY | 0.728 ± 0.048
192 | PLGLPLPCPFLL | 0.683 ± 0.063
193 | LVVPNFPLSFSV | 0.732 ± 0.055
194 | STRGGLCFLRWV | 0.5543 ± 0.0019
195 | ILLLKFSKLNKK | 0.66 ± 0.033
196 | LLLPSTPSPLLY | 0.609 ± 0.014
